Among the data in US20090311243A1 are Wnt8a mediated SOX9 mRNA reduction in primary chondrocytes, rescue by Fzd8 siRNA (quantitative PCR), ND50, inhibition of Wnt3a-induced TCF reporter luciferase activity in Fzd8:CHOK1 cells and TCF/LEF reporter (TOPFlash) luciferase activity, normalized to Renilla luciferase values, retold here.

One assay addresses human Fzd8 (human) (UniProt Q9H461). The experiment in a line: cell-based or functional assay.
Assay [1] concerns the target recombinant Wnt3a protein (R&D systems). Put plainly: cell-based or functional assay.

Chain of UniProt Q9H461 (Q9H461 28-694): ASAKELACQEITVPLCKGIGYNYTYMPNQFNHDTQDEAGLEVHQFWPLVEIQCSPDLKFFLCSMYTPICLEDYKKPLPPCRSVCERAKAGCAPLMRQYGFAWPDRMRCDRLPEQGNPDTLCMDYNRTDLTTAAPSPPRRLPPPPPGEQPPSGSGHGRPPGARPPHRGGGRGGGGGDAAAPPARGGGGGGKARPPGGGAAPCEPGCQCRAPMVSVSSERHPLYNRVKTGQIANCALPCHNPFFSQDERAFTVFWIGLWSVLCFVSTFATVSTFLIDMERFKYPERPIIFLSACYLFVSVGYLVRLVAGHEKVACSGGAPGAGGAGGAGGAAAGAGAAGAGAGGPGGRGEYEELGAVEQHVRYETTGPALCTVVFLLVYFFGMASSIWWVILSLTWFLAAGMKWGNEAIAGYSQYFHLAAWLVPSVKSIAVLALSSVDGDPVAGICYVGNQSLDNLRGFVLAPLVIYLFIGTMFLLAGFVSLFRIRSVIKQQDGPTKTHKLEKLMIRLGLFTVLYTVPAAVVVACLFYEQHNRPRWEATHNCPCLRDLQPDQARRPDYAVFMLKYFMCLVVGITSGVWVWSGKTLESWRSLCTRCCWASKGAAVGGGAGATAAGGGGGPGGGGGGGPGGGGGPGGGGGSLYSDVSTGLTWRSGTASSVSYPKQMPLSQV
Chain of recombinant Wnt3a protein (R&D systems) (P27467 19-352): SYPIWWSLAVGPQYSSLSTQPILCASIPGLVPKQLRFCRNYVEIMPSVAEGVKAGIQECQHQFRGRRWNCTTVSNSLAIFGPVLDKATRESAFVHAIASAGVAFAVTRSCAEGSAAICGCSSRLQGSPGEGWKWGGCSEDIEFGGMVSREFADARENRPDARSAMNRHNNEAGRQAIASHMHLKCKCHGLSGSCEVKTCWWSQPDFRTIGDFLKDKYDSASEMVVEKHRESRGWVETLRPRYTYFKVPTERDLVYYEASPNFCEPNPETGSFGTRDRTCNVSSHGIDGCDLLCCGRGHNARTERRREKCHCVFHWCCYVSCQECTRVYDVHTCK

As for “human Wnt8a (from UniProt Q9H1J5 25-351) (ligand)”, the Wnt8a mediated SOX9 mRNA reduction in primary chondrocytes, rescue by Fzd8 siRNA (quantitative PCR) in the assay with human Fzd8 (human) amounted to 52%.
On to “murine Fzd8 CRD Fc fusion (R&D systems) (from UniProt Q61091 28-173)”, for which the ND50, inhibition of Wnt3a-induced TCF reporter luciferase activity in Fzd8:CHOK1 cells in assay [1] was determined as 0.027 µg/mL.
For the substance “recombinant Wnt3a protein (R&D systems) (ligand)”, in the assay with human Fzd8 (human), the TCF/LEF reporter (TOPFlash) luciferase activity, normalized to Renilla luciferase came to 10.4 fold.
